# In the nanobody polyreactivity screen of Harvey et al. (2022):
# Assay: yeast display, Sf9 membrane polyspecificity reagent, FACS + sequencing; frameworks hold sequencing errors
# How it was run: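 After 36–48 hours of galactose induction, yeast (Saccharomyces cerevisiae BJ5465) displaying a synthetic nanobody library were stained at 4 °C for 1 hour with 10% biotinylated, detergent-solubilized Sf9 membrane reagent. Streptavidin microbeads enriched the stained cells before FACS sorting into low and high (top ~1%) gates on anti-HA and streptavidin fluorescence. Each clone's polyreactivity label reflects its gate of origin.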
row,Sequence,polyreactivity (PSR sort gate)
1,QVQLVESGGGLVQAGGSLRLSCAASGFTFYRYDMGWYRQAPGKERELVAAITNNGGNTYYADSVKGRFTISRDNAKNTVYLQMNSLKPEDTAVYYCATKRYYWRGYWGQGTQVTVSS,high polyreactivity
2,QVQLVESGGGLVQAGGSLRLSCAASGFTFYRYTMGWYRPARGKESELVARITYSGGSTYYADSVKGRFTISRDNAKNTVYLQLNSVKPVDTAVYYCNARSDFYSRYGYKYDYWGQGTQVTVSS,high polyreactivity
3,QVQLVESGGGLVQAGGSLRLSCAASGFTFYRYTMGWYRQAPGIYRELVAAISSGDSTYYADSVKGRFTISRDNAKNTVYLQMNSLKPEDTAVYYCAARQYSRGAIVYYWGQGTQVTVSS,high polyreactivity
4,QVQLVESGGGLVQAGGSLRLSCAASGFTFYSKAMGWYRQAPGKERQLVATIRSDGRTNYADSVKGRFTISRDNAKNTVYLQMNSLNPEDTAVYYCNADYRNDWGTPLWYAYNYWGQGTQVTVSS,low polyreactivity
5,QVQLVESGGGLVQAGGSLRLSCAASGFTFYSNAMGWSRQAPGKERELVATIRYRGGSTYADSVKGRFTISRDNAKNTVYLQMNSLKPEDTAVYYCAARKYRSFRQRTGDYWGQGTQVTVSS,high polyreactivity
6,QVQLVESGGGLVQAGGSLRLSCAASGFTFYSNAMGWYRQAPGKERELVAAITSSGGSTYYADSVKGRFTISRDNAKNTVYLQMNSLKPEDTAVDYCNVRVGYRRYGYWGQGTQVTVSS,high polyreactivity
7,QVQLVESGGGLVQAGGSLRLSCAASGFTFYSYAMGWYRQAPGKEREFVAAGSTYYADSVKGRFTISRGNAKNTVYLQMNSLKPEDTAVYYCAADPWIYVQSYGYWGQGTQVTVSS,low polyreactivity
8,QVQLVESGGGLVQAGGSLRLSCAASGFTFYSYAMGWYRQAPGKERELVAAISKRGGDTSYADSVKGRFTISRDNAKNTVYLQMNSLKPEDTAVYYCAKVYVPYGSSGGFLSRYNYWGQGTQVTVSS,high polyreactivity
9,QVQLVESGGGLVQAGGSLRLSCAASGFTFYSYAMGWYRQAPGKERELVAAITRSGGSTRYADSVKGRFTISRDNAKNTVYLQMNSLKPEDTAVYYCAARFVRNYVYKYNYWGQGTQVTVSS,high polyreactivity
10,QVQLVESGGGLVQAGGSLRLSCAASGFTFYSYAMGWYRQAPGKERELVAGISRSGGSTYYADSVKGRFTISRDNAKNTVYLQMNSLKPEDTAVYYCNVRLRKKIQNSKYDYWGQGTQVTVSS,high polyreactivity
11,QVQLVESGGGLVQAGGSLRLSCAASGFTFYTNAMGWYRQAPGKERELVAAISKRGASTYYADSVKGRFTISRDNAKNTFYLQMYSLKPEDTAVYYCAASSRTHGSYYYWGQGTQVTVSS,high polyreactivity
12,QVQLVESGGGLVQAGGSLRLSCAASGFTFYTNAMGWYRQAPGKERELVAGINSGSSTYYADSVKGRFTISRDNAKNTVYLQMNSLKPEDTAVYYCAARARRRYYYWGQGTQVTVSS,high polyreactivity
13,QVQLVESGGGLVQAGGSLRLSCAASGFTFYTNTMGWYRQAPGKERELVAVISRTGGSTYYADSVKGRFTISRDNANNTVYLQMKSLKPEDTAVYYCAKRGQWPYDYFIGNYWGQGSQVTVSS,high polyreactivity
14,QVQLVESGGGLVQAGGSLRLSCAASGFTFYTYALGWYRQAPGKEWELVAAITSGGGTYYADSVKGRFTISRDNAKNTVYLQMNSLKPEDTAVYYCNRASRRGYYYPYNYWGQGTQVTVSS,high polyreactivity
15,QVQLVESGGGLVQAGGSLRLSCAASGFTFYTYVKGWYRQAPGKERELVAAITSGVSTNYADSVKGRFTISRDNAKNTVYLQMNSVKPEDTAVYYFNKTFLFLEYDSWGQGTQVTVSS,low polyreactivity
16,QVQLVESGGGLVQAGGSLRLSCAASGFTFYVNAMGWYRQAPGKERELVAVISTGGSTYYADSVKGRFTISRDNAKNTVYLQMNSLKPEDTAVYYCAKRDLPDRSGTPNVIPFDYWGQGTQVTVSS,low polyreactivity
17,QVQLVESGGGLVQAGGSLRLSCAASGFTFYVYAMGWYRQAPGKEREFVAAISSSGGSTYYADSVKGRFTISRDNAKNTVYLQMNSLKPEDTAVYYSAALAYSTTRGRLDYWGQGTQVTVSS,high polyreactivity
18,QVQLVESGGGLVQAGGSLRLSCAASGFTFYVYAMGWYRQAPGKERELVAAISRSGGSTYYADSVKGRFTISRDNAKNTVYLQMNSLKPEDTAVYYFAVVQRYWSPGIVPYVYWGQGTQVTVSS,high polyreactivity
19,QVQLVESGGGLVQAGGSLRLSCAASGFTFYWYTMGWNRQAPGKERELVAAISRRGGSTSYADSVKGRFTISRDNAKNTVYLQMNSLKPEDTAVYYCAKTPGWTDYDYWGQGTQVTVSS,high polyreactivity
20,QVQLVESGGGLVQAGGSLRLSCAASGFTFYYNAMGGYRQAPGKEREFVAGITRTGGSTYYADSVKGRFTISRDNAMNTVYLQIKSLKPEDTAVYYCAATHYYYGTSRYDYWGQVTQVTVSS,high polyreactivity
21,QVQLVESGGGLVQAGGSLRLSCAASGFTFYYNAMGWYRQAPGKERELVAAISWTGGSTRYADSVKGRFTISRDNAKNTVYLQMNSLKPEDTAVYYCAARGYNYWGQGTQVTVSS,high polyreactivity
22,QVQLVESGGGLVQAGGSLRLSCAASGFTFYYNAMGWYRQAPGKERELVASITRSGGRTYYADSVKGRFTISRDNAMNTVYLKMNSLKPEDTAVYYCARRYPRGYYWGQGTQVTVSS,high polyreactivity

row,Sequence,polyreactivity (PSR sort gate)
1,QVQLVESGGGLVQAGGSLRLSCAASGFTFYYNAMGWYRQAQGKERELVAAMSRSGGRTYYADSVKGRFTISRDNAKNTVYLQMNSLKPEDTAVYYCNRRTRPDGGESDYWGQGTLVTVSS,high polyreactivity
2,QVQLVESGGGLVQAGGSLRLSCAASGFTFYYYAMGWSRQAPGKERELVASISKRGGTYYADSVKGRFTISRDNAKNTVYLQMNSLKPEDTAVYYCAAGIPRQAYKFYWGQGTQVTVSS,high polyreactivity
3,QVQLVESGGGLVQAGGSLRLSCAASGFTFYYYAMGWYRPAPGKERELVAGITGSGGRTYYADSVKGRFTISRDNAKITVYLQMNSLKPEDTAVYYSNARSLWYDYWGQGTQVTVSS,high polyreactivity
4,QVQLVESGGGLVQAGGSLRLSCAASGFTFYYYAMGWYRQAPGKERELVAAISISGASTYYADSVKGRFTISRDNAKNTVYLQMNSLKPEETAVDYCAKRTKGYTYHHEYGYWGQGTQVTVSS,low polyreactivity
5,QVQLVESGGGLVQAGGSLRLSCAASGFTFYYYAMGWYRQAPGKERELVAAISRSGGSTYYADSVKGRFTISRDNAKNTVYLQMNSLKPEDTAVYYCAARRLVGAERPGYDYWGQGTQVTVSS,high polyreactivity
6,QVQLVESGGGLVQAGGSLRLSCAASGFTFYYYAMGWYRQAPGKERELVAAISTRDGNTYYADSVKGRFTISRDNAKNTVYLQMNSLKPEDTAVYYCAADYFRYYPYDYSGQGTQVTVSS,low polyreactivity
7,QVQLVESGGGLVQAGGSLRLSCAASGFTFYYYAMGWYRQAPGKERELVAAITWSGDSTNYADSVKGRFTISRDNAKNTVYLQMNSLKPEDTAVYYCATESYDSYGLYDYWGQGTQVTVSS,low polyreactivity
8,QVQLVESGGGLVQAGGSLRLSCAASGFTFYYYAMGWYRQSPGKERELVAAISWNGGRTYYADSVKGRFTISRDTAKNNVYLQMNSLKPEDTAVYYCDTGYPIDLGREFDYWGQGIQVTVSS,high polyreactivity
9,QVQLVESGGGLVQAGGSLRLSCAASGFTFYYYDMGWYRQAPGKERELVAAITTGGSTKYADSVKGRFTISRDNAKNTVYLQMNSLKPEDTAVYYCNADDSVYVFSKYDYWGQGTQVTVSS,high polyreactivity
10,QVQLVESGGGLVQAGGSLRLSCAASGFTFYYYTMGGSRQAPGKERELVAAITSRGGNTYYADSVKGRFTISRDYAKNTVYLQMNSLNPEDTAVYYCAACRFSSRGYGYWGQGTQVTVSS,high polyreactivity
11,QVQLVESGGGLVQAGGSLRLSCAASGFTFYYYTMGRYRQAPGKEIELLADISSGDRTYYADSVKGRFTISRDNAKNTVYLQMNSLKPEDTAVYYCAAPAKYYTRFGHYNLNQDYDSWGQGTQVTVSS,low polyreactivity
12,QVQLVESGGGLVQAGGSLRLSCAASGFTIAQNVMGWYRQAPGKERELVAAISVSGGSTYYADSVKGRFTISRDNAKNTVYLQMNSLKPEDTAVYYCNAVAGVTKRVDLSRSGYWGLGTQVTVSS,high polyreactivity
13,QVQLVESGGGLVQAGGSLRLSCAASGFTIASNAMGWYRQAPGKERELVAAIRRSGSRTYYADSVKGRFTISRDNAKNTVYLQMNSLKPEDTAVYYCAVVSPRQSYYYWGQGTQVTVSS,high polyreactivity
14,QVQLVESGGGLVQAGGSLRLSCAASGFTIDSYAMGWYRQAPGTERELVAAISYRGGTTYYADSVKGRFTISRDNAKNTVYLQMNSLKPEDTAVYYCNRMWKYGFNYWGQGTQVTVSA,high polyreactivity
15,QVQLVESGGGLVQAGGSLRLSCAASGFTIFIYAMGWYRQAPGKEREFVAAITGSGGSTYYADSVKGRFTISRDNAKNTVYLQMNSLKPEDTAVYYCAAESEYVYWYYVDYDYWGQGTQVTVSS,high polyreactivity
16,QVQLVESGGGLVQAGGSLRLSCAASGFTIGANTMGWYRQAPGKERELVAAISASGGSTYYADSVKGRFTISRDNAKNTVYLQMNSLKPEDTAVYYCAARRYPGRTATYYSWGQGTQVTVSS,high polyreactivity
17,QVQLVESGGGLVQAGGSLRLSCAASGFTIGHYAMGWYRQAPGKERELVAAISSGDRTYFADSVKGRFTISRDNAKNTFYLQMNSLKPEDTAVYYCNAVYYSWAQSARFDYWGQGTQVTVSS,low polyreactivity
18,QVQLVESGGGLVQAGGSLRLSCAASGFTIGRYDMGWYRQAPGKERELVAAISWSGGSTYYADSVKGRFTISRDNAKNTVYLQMNSLKPEDTAVYYCNAAYYGYENLSKRGYWGQGTQVTVSS,high polyreactivity
19,QVQLVESGGGLVQAGGSLRLSCAASGFTIGRYTMGWYRQAPGKERELVAAISWSGGSTYYADSVKGRFTISRDNAKNTVYLQMNSLKPEDTAVYYCAKVFRGGRGDYWGQGTQVTVSS,high polyreactivity
20,QVQLVESGGGLVQAGGSLRLSCAASGFTIGYKVMGWYRQAPGKERELVATISWNGARTYYADSVKGRFTISRDNAKNTVYLQMNSLKPEDTAVYYCAARRYYRGEYDYWGQGTQVTVSS,low polyreactivity
21,QVQLVESGGGLVQAGGSLRLSCAASGFTIHYNAMGWYRQAPGKERELVATISKSAGITSYADSVKGRFTISRDNAKNTVYLLMNSLKPEDTAVYYCAADKSYRRVYYWGQGTQVTVSS,low polyreactivity
